From PMC6480404 (Molecular cell, 2018)

Molecular target: Streptococcus pyogenes Cas9 (Streptococcus pyogenes, UniProt Q99ZW2 1-1368)
Experiment: native gel or EMSA

B1: AcrIIA4 (natural protein, Listeria monocytogenes prophage, UniProt A0A247D711 1-87, looked up)
chain: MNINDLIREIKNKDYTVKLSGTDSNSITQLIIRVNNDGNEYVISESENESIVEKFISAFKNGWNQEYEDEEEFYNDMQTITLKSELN
- Kd: 78 nM
